Data as given in article doi:10.1101/2024.04.05.588290, “An optical aptamer-based cytokine nanosensor detects macrophage activation by bacterial toxins”.

Biological target: interleukin-6 (IL-6), human recombinant (Homo sapiens, UniProt P05231 30-212)
Assay: SWCNT near-infrared fluorescence quenching, (7,5) chirality; SWCNT complex, 5250 ng/mL IL-6, 1X PBS, 3 h; no response, p=0.65903; 0.5 mg/L SWCNT-ssDNA in 1X PBS (or 1X PBS + 10% FBS), 5250 ng/mL IL-6, 120 uL, triplicate, up to 180 min; pH and temperature not stated
Settings: protein: commercial; label: noncovalently adsorbed on SWCNT

Sequence of interleukin-6 (IL-6), human recombinant (P05231 30-212): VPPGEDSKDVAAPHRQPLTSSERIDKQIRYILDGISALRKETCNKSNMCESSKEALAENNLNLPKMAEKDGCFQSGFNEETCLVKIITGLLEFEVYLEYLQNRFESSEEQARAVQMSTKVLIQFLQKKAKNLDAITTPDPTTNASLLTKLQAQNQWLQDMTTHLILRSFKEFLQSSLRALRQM

B1: (GT)15 (ssDNA)
DNA: GTGTGTGTGTGTGTGTGTGTGTGTGTGTGT
- binding result: no binding
